Test results taken from patent US20240150476A1 (Chugai, published 2024).
One block for each binder: values may come before it.

Assays:
[1] = target: T1, 20A11hu-G1m/VK2-28-k0MT (Homo sapiens (Human), UniProt P0DOX5 2-447 = IgG part); assay: BLI (Octet), in the same way as in Example 3, 30 C or 25 C
T1 construct: IgG antibody-like molecule

[2] = target: T2, IL6R90-G1m/lamL (Homo sapiens (Human), UniProt P0DOY2 1-106); assay: BLI (Octet HTX), molecule captured on Protein A biosensor, hsIL-6R as analyte, 30 C
T2 construct: IgG antibody-like molecule lacking VL
Experimental: (§1) The hsIL-6R binding evaluation of each molecule was conducted using Octet HTX (Pall ForteBio Corp.). Specifically, each molecule was bound to Biosensor/Protein A (ProA) (Pall ForteBio Corp., 18-5013), and hsIL-6R was allowed to act thereon, followed by binding evaluation at 30° C.

[3] = target: T3, IL6R90-G1m/VK2-28-k0MT; assay: as above
T3 construct: IgG antibody-like molecule
Experimental: as §1

[4] = target: T4, 20A11-G1m/VK2-28-k0MT; assay: BLI (Octet), in the same way as in Example 3
T4 construct: IgG antibody-like molecule

[5] = target: T5, human CD3ed-Fc (human); assay: phage display: panning on biotin-labeled human CD3ed-Fc and/or phage ELISA
T5 construct: Biotinylated in culture with BirA; The heterodimer fraction was purified; also called biotin-labeled protein containing human CD3 epsilon and human CD3 delta linked to a human antibody constant region; CD3 epsilon-delta heterodimer fused with the antibody constant region
T5 chain 1: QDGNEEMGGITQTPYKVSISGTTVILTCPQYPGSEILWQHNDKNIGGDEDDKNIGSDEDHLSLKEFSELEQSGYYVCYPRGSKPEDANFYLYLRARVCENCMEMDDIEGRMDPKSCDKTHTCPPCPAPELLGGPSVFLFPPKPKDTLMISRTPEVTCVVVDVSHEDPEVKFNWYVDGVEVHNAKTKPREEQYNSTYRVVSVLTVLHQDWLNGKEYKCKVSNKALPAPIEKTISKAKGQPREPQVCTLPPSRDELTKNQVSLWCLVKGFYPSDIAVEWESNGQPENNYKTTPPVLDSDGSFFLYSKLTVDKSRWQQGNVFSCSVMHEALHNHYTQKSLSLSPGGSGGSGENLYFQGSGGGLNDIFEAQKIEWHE
T5 chain 2: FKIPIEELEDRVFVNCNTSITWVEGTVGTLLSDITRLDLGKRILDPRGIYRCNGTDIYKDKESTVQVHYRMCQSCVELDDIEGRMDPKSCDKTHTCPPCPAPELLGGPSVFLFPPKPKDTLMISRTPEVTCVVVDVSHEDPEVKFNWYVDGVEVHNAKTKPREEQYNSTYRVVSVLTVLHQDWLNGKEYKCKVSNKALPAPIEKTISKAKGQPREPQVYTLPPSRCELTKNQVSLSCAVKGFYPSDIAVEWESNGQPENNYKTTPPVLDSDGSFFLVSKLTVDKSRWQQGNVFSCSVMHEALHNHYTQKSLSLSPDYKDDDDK
Experimental: Next, BSA was added to the phage library solution so as to attain a final BSA concentration of 4%. […] The magnetic beads used were NeutrAvidin coated beads (FG beads NeutrAvidin) or Streptavidin coated beads (Dynabeads MyOne Streptavidin T1).
Specifically, 100 pmol of the biotin-labeled antigen was added to the prepared phage library solution, and the phage library solution was contacted with the antigen at room temperature for 60 minutes. The magnetic beads blocked with BSA were added thereto, and the complexes of the antigen and the phages were bound to the magnetic beads at room temperature for 15 minutes. The beads were washed twice with 0.5 mL of TBST (TBS containing 0.1% Tween 20; TBS was manufactured by Takara Bio Inc.) and then further washed once with 0.5 mL of TBS. Then, 0.5 mL of 1 mg/mL trypsin was added thereto, and the beads were suspended at room temperature for 15 minutes and immediately thereafter, separated using a magnetic stand to recover a phage solution. The recovered phage solution was added to 20 mL of an E. coli line ER2738 in an exponential stage of growth (OD600: 0.4-0.5). The E. coli was cultured with mild stirring at 37° C. for 1 hour and thereby infected by the phages. […] Next, the phages were recovered from the culture solution of the inoculated E. coli to prepare a phage library solution. This cycle, called panning, was repeated twice. In the second cycle of panning, the beads were washed three times with TBST and subsequently twice with TBS. Also, 4 nmol of human Fc was added in the case of the panning against the human CD3ed-Fc.

[6] = target: T2, IL6R90-G1m/lamL; assay: BLI (Octet HTX), hsIL-6R-BAP1 on streptavidin sensor, molecule as analyte, 30 C

T4 sequence (heavy, as listed by the source, chain 1 of 2): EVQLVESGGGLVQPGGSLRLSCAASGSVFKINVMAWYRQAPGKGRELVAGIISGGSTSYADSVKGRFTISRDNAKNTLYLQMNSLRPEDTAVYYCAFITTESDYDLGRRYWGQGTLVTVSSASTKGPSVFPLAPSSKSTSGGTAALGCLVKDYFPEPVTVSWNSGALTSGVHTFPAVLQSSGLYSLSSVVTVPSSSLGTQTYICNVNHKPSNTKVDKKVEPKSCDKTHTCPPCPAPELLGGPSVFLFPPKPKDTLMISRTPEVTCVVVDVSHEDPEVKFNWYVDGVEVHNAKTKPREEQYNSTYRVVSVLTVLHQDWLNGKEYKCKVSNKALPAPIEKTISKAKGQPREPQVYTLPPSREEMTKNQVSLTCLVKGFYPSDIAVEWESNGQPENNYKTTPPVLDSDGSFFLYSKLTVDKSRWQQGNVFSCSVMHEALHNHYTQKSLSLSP
T4 sequence (light, as listed by the source, chain 2 of 2): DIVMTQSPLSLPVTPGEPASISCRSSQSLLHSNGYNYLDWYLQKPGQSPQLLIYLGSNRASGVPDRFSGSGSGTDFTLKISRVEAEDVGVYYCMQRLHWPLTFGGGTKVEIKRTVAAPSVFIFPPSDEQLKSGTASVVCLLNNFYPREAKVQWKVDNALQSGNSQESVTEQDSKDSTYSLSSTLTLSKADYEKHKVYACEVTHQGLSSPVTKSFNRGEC
T1 sequence (P0DOX5 other isoform, or with tags, fused parts or gaps, chain 1 of 2): as the sequence (heavy, as listed by the source, chain 1 of 2) above, with Y37V, R45L, L47W counted along it
T1 sequence (light, as listed by the source, chain 2 of 2): as the sequence (light, as listed by the source, chain 2 of 2) above
T3 sequence (light, as listed by the source, chain 2 of 2, other chains not shown): as the sequence (light, as listed by the source, chain 2 of 2) above

binding result [1]: no binding
binding result [2]: binds
binding result [3]: no binding
binding result [4]: binds
B1: soluble human IL-6R (receptor)
chain: LAPRRCPAQEVARGVLTSLPGDSVTLTCPGVEPEDNATVHWVLRKPAAGSHPSRWAGMGRRLLLRSVQLHDSGNYSCYRAGRPAGTVHLLVDVPPEEPQLSCFRKSPLSNVVCEWGPRSTPSLTTKAVLLVRKFQNSPAEDFQEPCQYSQESQKFSCQLAVPEGDSSFYIVSMCVASSVGSKFSKTQTFQGCGILQPDPPANITVTAVARNPRWLSVTWQDPHSWNSSFYRLRFELRYRAERSKTFTTWMVKDLQHHCVIHDAWSGLRHVVQLRAQEEFGQGEWSEWSPEAMGTPWTESRSPPAENEVSTPMQALTTNKDDDNILFRDSANATSLPVQ
notes: Expressed in CHO cells and purified from the supernatant; also called hsIL-6R; recombinant human IL6R

binding result [5]: binds
B2: bC3edL1R1N161H01 (VHH)
VHH: QVQLVESGGGLVQPGGSLRLSCAASGFPFDNYVMSWVRQAPGKGLEWISAISWNGGSTYYAESMKGRFTISRDNAKSTLYLQMNSLKSEDTAVYYCAKEPRVYYSGSPDYWGQGTQVTVSG

binding result [5]: binds
B3: bC3edL1R1N164H01 (VHH)
VHH: QVQLVESGGGLVQPGGSLRLSCAASGFTFDVYGMSWVRHSPGKGLEWVSTINWNGGSTYYAESMKGRFTISRDNAKNTVYLQMNSLKPEDTAVYYCAKFAPWDGDMEWGQGTQVTVSG

binding result [6]: binds
B4: hsIL-6R-BAP1 (receptor)
chain: LAPRRCPAQEVARGVLTSLPGDSVTLTCPGVEPEDNATVHWVLRKPAAGSHPSRWAGMGRRLLLRSVQLHDSGNYSCYRAGRPAGTVHLLVDVPPEEPQLSCFRKSPLSNVVCEWGPRSTPSLTTKAVLLVRKFQNSPAEDFQEPCQYSQESQKFSCQLAVPEGDSSFYIVSMCVASSVGSKFSKTQTFQGCGILQPDPPANITVTAVARNPRWLSVTWQDPHSWNSSFYRLRFELRYRAERSKTFTTWMVKDLQHHCVIHDAWSGLRHVVQLRAQEEFGQGEWSEWSPEAMGTPWTESRSPPAENEVSTPMQALTTNKDDDNILFRDSANATSLPVQGGGGSGLNDIFEAQKIEWHE
modifications: biotin on the C-terminal AviTag sequence (BirA)
notes: also called hsIL-6R-Avitag; biotinylated soluble human IL6R

binding result [5]: binds
B5: bC3edL1R1N160H01 (VHH)
VHH: QVQLVESGGGLVQPGGSLRLSCAASGFTFNHCWMYWVRQAPGKGLEWVSVINTDGGSAYYADSVKGRFTISRDNAKNTLYLQMNSLKSEDTAVYYCARDWAPLVDYYYGMDYWGKGTLVTVSG
